Assay results as given in the supplement of paper PMC11246515.
± gives the standard deviation of the averaged measurements.

Assay: total protein half-life in vivo (active degradation + dilution); higher = more stable protein
[1] = E. coli NCM3722 delta-clpP delta-lon delta-hslV, growth: N-lim chemostat, doubling time 6 h
[2] = E. coli NCM3722 delta-clpP, growth: N-lim chemostat, doubling time 6 h
[3] = E. coli NCM3722 delta-hslV, growth: N-lim chemostat, doubling time 6 h
[4] = E. coli NCM3722 delta-lon, growth: N-lim chemostat, doubling time 6 h
[5] = E. coli NCM3722 delta-smpB, growth: N-lim chemostat, doubling time 6 h
[6] = wild type E. coli NCM3722, growth: C-lim chemostat, doubling time 6 h
[7] = wild type E. coli NCM3722, growth: C-lim chemostat, doubling time 12 h
[8] = wild type E. coli NCM3722, growth: N-lim chemostat, doubling time 6 h
[9] = wild type E. coli NCM3722, growth: N-lim chemostat, doubling time 12 h
[10] = wild type E. coli NCM3722, growth: P-lim chemostat, doubling time 6 h
[11] = wild type E. coli NCM3722, growth: P-lim chemostat, doubling time 12 h
[12] = wild type E. coli NCM3722, growth: C-lim chemostat, doubling time 3 h

Row | Sequence | total protein half-life in vivo [1] [h] | total protein half-life in vivo [2] [h] | total protein half-life in vivo [3] [h] | total protein half-life in vivo [4] [h] | total protein half-life in vivo [5] [h] | total protein half-life in vivo [6] [h] | total protein half-life in vivo [7] [h] | total protein half-life in vivo [8] [h] | total protein half-life in vivo [9] [h] | total protein half-life in vivo [10] [h] | total protein half-life in vivo [11] [h] | total protein half-life in vivo [12] [h]
1 | MNTTLFRWPVRVYYEDTDAGGVVYHASYVAFYERARTEMLRHHHFSQQALMAERVAFVVRKMTVEYYAPARLDDMLEIQTEITSMRGTSLVFTQRIVNAENTLLNEAEVLVVCVDPLKMKPRALPKSIVAEFKQ [P0A8Z3] | 5.87 ± 0.51 | 6.54 ± 0.91 | 6.41 ± 0.61 | 6.27 ± 0.26 | 5.7 ± 0.13 | 5.99 ± 0.073 | 11.1 ± 2.1 | 5.28 ± 0.094 | 12.3 ± 2.7 | 5.68 ± 0.45 | 12.63 ± 0.092 | –
2 | MNTTTPMGMLQQPRPFFMIFFVELWERFGYYGVQGVLAVFFVKQLGFSQEQAFVTFGAFAALVYGLISIGGYVGDHLLGTKRTIVLGALVLAIGYFMTGMSLLKPDLIFIALGTIAVGNGLFKANPASLLSKCYPPKDPRLDGAFTLFYMSINIGSLIALSLAPVIADRFGYSVTYNLCGAGLIIALLVYIACRGMVKDIGSEPDFRPMSFSKLLYVLLGSVVMIFVCAWLMHNVEVANLVLIVLSIVVTIIFFRQAFKLDKTGRNKMFVAFVLMLEAVVFYILYAQMPTSLNFFAINNVHHEILGFSINPVSFQALNPFWVVLASPILAGIYTHLGNKGKDLSMPMKFTLGMFMCSLGFLTAAAAGMWFADAQGLTSPWFIVLVYLFQSLGELFISALGLAMIAALVPQHLMGFILGMWFLTQAAAFLLGGYVATFTAVPDNITDPLETLPVYTNVFGKIGLVTLGVAVVMLLMVPWLKRMIATPESH | 6.66 ± 0.32 | 6.8 ± 0.1 | – | 5.78 ± 0.79 | > 8 | – | – | – | 6.12 | 6.47 | 11.1 ± 1.4 | > 4
3 | MNTVCTHCQAINRIPDDRIEDAAKCGRCGHDLFDGEVINATGETLDKLLKDDLPVVIDFWAPWCGPCRNFAPIFEDVAQERSGKVRFVKVNTEAERELSSRFGIRSIPTIMIFKNGQVVDMLNGAVPKAPFDSWLNESL [P0AGG4] | 5.02 ± 0.31 | 2.89 ± 0.54 | 2.37 ± 0.6 | 5.32 ± 0.43 | 2.48 ± 1.3 | 3.09 ± 0.67 | 5.03 ± 1.5 | 2.26 ± 0.083 | 3.44 ± 0.91 | 2.24 ± 0.53 | 4.54 ± 0.14 | 1.6 ± 0.2
4 | MNTVRSEKDSMGAIDVPADKLWGAQTQRSLEHFRISTEKMPTSLIHALALTKRAAAKVNEDLGLLSEEKASAIRQAADEVLAGQHDDEFPLAIWQTGSGTQSNMNMNEVLANRASELLGGVRGMERKVHPNDDVNKSQSSNDVFPTAMHVAALLALRKQLIPQLKTLTQTLNEKSRAFADIVKIGRTHLQDATPLTLGQEISGWVAMLEHNLKHIEYSLPHVAELALGGTAVGTGLNTHPEYARRVADELAVITCAPFVTAPNKFEALATCDALVQAHGALKGLAASLMKIANDVRWLASGPRCGIGEISIPENEPGSSIMPGKVNPTQCEALTMLCCQVMGNDVAINMGGASGNFELNVFRPMVIHNFLQSVRLLADGMESFNKHCAVGIEPNRERINQLLNESLMLVTALNTHIGYDKAAEIAKKAHKEGLTLKAAALALGYLSEAEFDSWVRPEQMVGSMKAGR | 4.65 ± 0.1 | 4.64 ± 0.49 | 4.42 ± 0.081 | 4.69 ± 0.13 | 4.11 ± 0.091 | 5.9 ± 0.12 | 9.94 ± 0.14 | 4.59 ± 0.14 | 7.19 ± 0.16 | 5.82 ± 0.21 | 12.6 ± 0.33 | 3.18 ± 0.23
5 | MNVFNPAQFRAQFPALQDAGVYLDSAATALKPEAVVEATQQFYSLSAGNVHRSQFAEAQRLTARYEAAREKVAQLLNAPDDKTIVWTRGTTESINMVAQCYARPRLQPGDEIIVSVAEHHANLVPWLMVAQQTGAKVVKLPLNAQRLPDVDLLPELITPRSRILALGQMSNVTGGCPDLARAITFAHSAGMVVMVDGAQGAVHFPADVQQLDIDFYAFSGHKLYGPTGIGVLYGKSELLEAMSPWLGGGKMVHEVSFDGFTTQSAPWKLEAGTPNVAGVIGLSAALEWLADYDINQAESWSRSLATLAEDALAKRPGFRSFRCQDSSLLAFDFAGVHHSDMVTLLAEYGIALRAGQHCAQPLLAELGVTGTLRASFAPYNTKSDVDALVNAVDRALELLVD | 4.06 ± 0.23 | 3.13 ± 0.13 | 3.71 ± 0.079 | 4.38 ± 0.57 | 3.52 ± 0.088 | 5.59 ± 0.13 | 10.8 ± 2.4 | 4.11 ± 0.22 | 6.8 ± 0.74 | 5.86 ± 0.26 | 13.3 ± 3.4 | 2.97 ± 0.082
6 | MNVFSQTQRYKALFWLSLFHLLVITSSNYLVQLPVSILGFHTTWGAFSFPFIFLATDLTVRIFGAPLARRIIFAVMIPALLISYVISSLFYMGSWQGFGALAHFNLFVARIATASFMAYALGQILDVHVFNRLRQSRRWWLAPTASTLFGNVSDTLAFFFIAFWRSPDAFMAEHWMEIALVDYCFKVLISIVFFLPMYGVLLNMLLKRLADKSEINALQAS | – | – | – | – | – | – | – | – | – | – | – | 2.3
7 | MNVIRTEIEDVLILEPRVFGDDRGFFYESFNQSAFEHILGYPVSFVQDNHSRSSKNVLRGLHFQRGEYAQDKLVRCTHGAVFDVAVDIRPNSVSFGKWVGVLLSADNKQQLWIPKGFAHGFLVLSDIAEFQYKTTNYYHPESDCGICWNDERIAIDWPQTSGLILSPKDERLFTLDELIRLKLIA | 6.28 | – | – | 3.33 ± 0.14 | – | – | – | – | 3.7 | – | – | –
8 | MNVLRSGIVTMLLLAAFSVQAACTWPAWEQFKKDYISQEGRVIDPSDARKITTSEGQSYGMFSALAANDRAAFDNILDWTQNNLAQGSLKERLPAWLWGKKENSKWEVLDSNSASDGDVWMAWSLLEAGRLWKEQRYTDIGSALLKRIAREEVVTVPGLGSMLLPGKVGFAEDNSWRFNPSYLPPTLAQYFTRFGAPWTTLRETNQRLLLETAPKGFSPDWVRYEKDKGWQLKAEKTLISSYDAIRVYMWVGMMPDSDPQKARMLNRFKPMATFTEKNGYPPEKVDVATGKAQGKGPVGFSAAMLPFLQNRDAQAVQRQRVADNFPGSDAYYNYVLTLFGQGWDQHRFRFSTKGELLPDWGQECANSH | 5.88 ± 0.14 | 6.89 ± 0.16 | 6.78 ± 0.68 | 6.5 ± 0.64 | 5.684 ± 0.013 | 6.41 ± 0.42 | – | 6.48 ± 1.2 | 14 ± 0.56 | 5.86 ± 0.12 | 12.7 ± 0.61 | 3.19 ± 0.12
